In paper PMC12956874:
pIC50, pKd: −log10 of the molar value.

Columns and labels:
[1] = target: PEX19-His, full-length (T. brucei); experiment: AlphaScreen or HTRF
[2] = target: PEX19-His 1 to 50 (T. brucei); experiment: AlphaScreen or HTRF
[3] = target: PEX38_(65–134) (T. brucei); experiment: ITC; titration of PEX38 with PEX19; technical triplicates
[4] = target: PEX19-His, full-length (T. brucei); experiment: AlphaScreen or HTRF; AlphaScreen displacement assay: equimolar PEX19-His and GST-PEX3Δ1-44 (30 nM), increasing amounts of untagged PEX38
[5] = target: TbPEX38 (65-134) (T. brucei); experiment: ITC; 40 µM TbPEX38 titrated with 440 µM TbPEX19; triplicates; 25°C; 20 mM Tris pH 7.5, 50 mM NaCl; one-site binding model; MicroCal PEAQ-ITC

GST-PEX3Δ1-44 (domain or fragment)
other [1]: 30 fold

GST-PEX38, full-length (natural protein)
other [2]: 10 fold

PEX19_(1–50) with a C-terminal SGGY extension (domain or fragment)
pKd [3]: 5.52

PEX38_(65–134) (domain or fragment)
pIC50 [4]: 6.35

TbPEX19 (1-50-SGGY) (domain or fragment)
pKd [5]: 5.54

untagged PEX38, full-length (natural protein)
pIC50 [4]: 6.02
